In US20130158095:

Biological target: TK substrate 1 (HTRF KinEASE-TK kit; Cisbio Inc.)

B1: EML4-ALK fusion polypeptide v1 having the FLAG tag at the N-terminus (protein)
chain: GFAGSLDDSISAASTSDVQDRLSALESRVQQQEDEITVLKAALADVLRRLAISEDHVASVKKSVSSKGQPSPRAVIPMSCITNGSGANRKPSHTSAVSIAGKETLSSAAKSGTEKKKEKPQGQREKKEESHSNDQSPQIRASPSPQPSSQPLQIHRQTPESKNATPTKSIKRPSPAEKSHNSWENSDDSRNKLSKIPSTPKLIPKVTKTADKHKDVIINQEGEYIKMFMRGRPITMFIPSDVDNYDDIRTELPPEKLKLEWAYGYRGKDCRANVYLLPTGEIVYFIASVVVLFNYEERTQRHYLGHTDCVKCLAIHPDKIRIATGQIAGVDKDGRPLQPHVRVWDSVTLSTLQIIGLGTFERGVGCLDFSKADSGVHLCVIDDSNEHMLTVWDWQKKAKGAEIKTTNEVVLAVEFHPTDANTIITCGKSHIFFWTWSGNSLTRKQGIFGKYEKPKFVQCLAFLGNGDVLTGDSGGVMLIWSKTTVEPTPGKGPKVYRRKHQELQAMQMELQSPEYKLSKLRTSTIMTDYNPNYCFAGKTSSISDLKEVPRKNITLIRGLGHGAFGEVYEGQVSGMPNDPSPLQVAVKTLPEVCSEQDELDFLMEALIISKFNHQNIVRCIGVSLQSLPRFILLELMAGGDLKSFLRETRPRPSQPSSLAMLDLLHVARDIACGCQYLEENHFIHRDIAARNCLLTCPGPGRVAKIGDFGMARDIYRASYYRKGGCAMLPVKWMPPEAFMEGIFTSKTDTWSFGVLLWEIFSLGYMPYPSKSNQEVLEFVTSGGRMDPPKNCPGPVYRIMTQCWQHQPEDRPNFAIILERIEYCTQDPDVINTALPIEYGPLVEEEEKVPVRPKDPEGVPPLLVSQQAKREEERSPAAPPPLPTTSSGKAAKKPTAAEVSVRVPRGPAVEGGHVNMAFSQSNPPSELHRVHGSRNKPTSLWNPTYGSWFTEKPTKKNNPIAKKEPHERGNLGLEGSCTVPPNVATGRLPGASLLLEPSSLTANMKEVPLFRLRHFPCGNVNYGYQQQGLPLEAATAPGAGHYEDTILKSKNSMNQPGP
  count of HTRF (that is, phosphorylation of the peptide substrate): increased by about 12 times by the addition of ATP compare to no addition of ATP
